Experiment: solubility of headpiece in organic solvent (DMF)
Type: physicochemical
Settings: DMF/water reaction mixture
Experimental: In order to prepare a “library of 1,” a model compound, 5-(4,6-dichlorotriazinyl-aminofluorescein) (DTAF; Anaspec) (FIG. 12), was coupled to the amino group of HP-1. DTAF structurally represents a trichlorotriazine scaffold with one amino compound coupled. To form a library, trichlorotriazine scaffolds can be derivatized with a diversity of building blocks at each of the three chlorine positions. DTAF also provides a fluorescent label to the model library. The reaction (10 μl) was set up as follows. To 5 μl of 400 μM HP-1 dissolved in water, 2 μl of 750 mM borate buffer, pH 9.5, and 1 μl of DMF were added. DTAF was dissolved in DMF to 50 mM and 2 μl was added to the reaction. Final concentrations of the HP-1 and DTAF were 200 μM and 10 mM, respectively, thus generating a 50-fold excess of DTAF. The final DMF concentration was 30%. […] The reaction was allowed to proceed at 4° C. for 16-20 hours. The reaction mixture was then diluted with water to 30-50 μl and desalted on a Zeba spin column (Pierce). No further purification was completed at this point.

Substance: HP-1: hairpin oligonucleotide headpiece (SEQ ID NO: 51) with amino-PEG2000 linker on C5-amino-modified dT (DNA TCCTGGCTGAGGCGAGAGTTTTTCTCTCGCCTCAGCCAGGACC; amino-PEG2000 linker on C5-amino-modified dT; modified_base (21)..(21) dT-C6-NH)
- stayed soluble in up to % DMF: up to 90 % DMF
